Patent KR20210028556A (dated 2021)

Columns and labels:
[1] = target: T1, 인간 ROR2 (세포 표면 발현, CHO-human ROR2) (human, UniProt Q01974 34-943); assay: flow cytometry, CHO-human ROR2 cells
T1 construct: whole, on cells; negative control, transiently overexpressed on CHO cells

[2] = target: T2, 마우스 ROR1 (세포 표면 발현, CHO-mouse ROR1) (mouse, UniProt Q9Z139 30-937); assay: flow cytometry, CHO-mouse ROR1 cells
T2 construct: whole, on cells; transiently overexpressed on CHO cells

[3] = target: T3, 인간 ROR1 (세포 표면 발현) (human, UniProt Q01973 30-937); assay: flow cytometry, JeKo-1 and Mino cells
T3 construct: whole, on cells; endogenous on JeKo-1, Mino and other human cancer lines; overexpressed on CHO and MC38 cells; also called hROR1; CHO-human ROR1
T3 sequence (Q01973 30-937): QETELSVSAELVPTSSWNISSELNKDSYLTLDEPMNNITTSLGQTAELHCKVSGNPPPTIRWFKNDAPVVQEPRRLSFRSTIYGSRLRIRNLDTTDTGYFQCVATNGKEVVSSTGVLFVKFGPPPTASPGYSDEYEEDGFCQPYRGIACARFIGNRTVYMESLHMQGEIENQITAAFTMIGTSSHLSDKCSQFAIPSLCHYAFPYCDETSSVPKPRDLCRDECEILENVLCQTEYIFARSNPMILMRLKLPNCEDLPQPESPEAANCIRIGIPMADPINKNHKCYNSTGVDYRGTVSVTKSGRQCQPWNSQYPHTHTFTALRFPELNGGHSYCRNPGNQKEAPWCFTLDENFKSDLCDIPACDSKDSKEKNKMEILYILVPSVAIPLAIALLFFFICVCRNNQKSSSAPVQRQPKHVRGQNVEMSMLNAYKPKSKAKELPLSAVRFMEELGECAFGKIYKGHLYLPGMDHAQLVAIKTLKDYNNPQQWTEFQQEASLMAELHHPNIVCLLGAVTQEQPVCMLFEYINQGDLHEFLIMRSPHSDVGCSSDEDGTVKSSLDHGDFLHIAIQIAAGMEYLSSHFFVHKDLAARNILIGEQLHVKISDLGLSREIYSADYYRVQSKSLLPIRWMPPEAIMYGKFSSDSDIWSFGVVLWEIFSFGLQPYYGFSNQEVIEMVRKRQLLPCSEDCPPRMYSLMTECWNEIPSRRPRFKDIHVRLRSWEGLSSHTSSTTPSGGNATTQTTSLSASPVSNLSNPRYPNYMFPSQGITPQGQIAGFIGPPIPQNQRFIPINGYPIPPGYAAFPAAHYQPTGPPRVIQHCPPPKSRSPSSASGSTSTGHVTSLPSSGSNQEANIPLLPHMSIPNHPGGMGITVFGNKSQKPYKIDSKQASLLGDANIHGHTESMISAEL

[4] = target: T4, 인간 ROR1 항원 (ELISA 코팅: 실시예 1의 ROR1-Fc 또는 재조합 인간 ROR1-His) (human, UniProt Q01973 30-406); assay: ELISA, IgG on coated human ROR1 protein
T4 construct: extracellular domain; tag therefore open
T4 sequence (Q01973 30-406): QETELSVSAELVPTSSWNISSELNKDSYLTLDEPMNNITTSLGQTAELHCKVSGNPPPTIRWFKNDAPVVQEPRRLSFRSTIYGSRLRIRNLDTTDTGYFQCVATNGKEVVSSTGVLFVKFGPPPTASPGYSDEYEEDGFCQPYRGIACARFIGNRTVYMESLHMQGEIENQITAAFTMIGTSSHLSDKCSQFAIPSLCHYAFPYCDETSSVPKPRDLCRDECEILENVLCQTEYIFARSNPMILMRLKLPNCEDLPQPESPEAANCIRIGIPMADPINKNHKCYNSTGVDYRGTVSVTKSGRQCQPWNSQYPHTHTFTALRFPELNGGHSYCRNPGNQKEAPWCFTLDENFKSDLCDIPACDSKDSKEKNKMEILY

[5] = target: T5, 재조합 마우스 ROR1 단백질 (Acrobiosystems, RO1-M5221) (mouse, UniProt Q9Z139 30-406); assay: ELISA, IgG on coated recombinant mouse ROR1
T5 construct: extracellular domain; bought protein; also called 마우스 ROR1 항원
T5 sequence (Q9Z139 30-406): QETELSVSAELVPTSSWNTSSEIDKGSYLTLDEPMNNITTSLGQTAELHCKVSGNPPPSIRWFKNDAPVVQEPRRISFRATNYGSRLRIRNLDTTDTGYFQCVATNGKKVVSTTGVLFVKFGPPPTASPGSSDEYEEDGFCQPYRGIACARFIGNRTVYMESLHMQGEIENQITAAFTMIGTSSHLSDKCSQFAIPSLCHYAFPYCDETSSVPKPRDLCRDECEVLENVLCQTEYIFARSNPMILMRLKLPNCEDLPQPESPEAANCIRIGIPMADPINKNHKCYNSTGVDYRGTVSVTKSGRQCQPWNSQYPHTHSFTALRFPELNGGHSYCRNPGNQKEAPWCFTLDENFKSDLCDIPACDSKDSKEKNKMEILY

[6] = target: T6, 재조합 인간 ROR1-His (Sino Biological, 13968-H08H) (human, UniProt Q01973 30-403); assay: BLI (Octet), ROR1-His on the sensor, 1:1 fit
T6 construct: bought protein
T6 sequence (Q01973 30-403 limits assumed): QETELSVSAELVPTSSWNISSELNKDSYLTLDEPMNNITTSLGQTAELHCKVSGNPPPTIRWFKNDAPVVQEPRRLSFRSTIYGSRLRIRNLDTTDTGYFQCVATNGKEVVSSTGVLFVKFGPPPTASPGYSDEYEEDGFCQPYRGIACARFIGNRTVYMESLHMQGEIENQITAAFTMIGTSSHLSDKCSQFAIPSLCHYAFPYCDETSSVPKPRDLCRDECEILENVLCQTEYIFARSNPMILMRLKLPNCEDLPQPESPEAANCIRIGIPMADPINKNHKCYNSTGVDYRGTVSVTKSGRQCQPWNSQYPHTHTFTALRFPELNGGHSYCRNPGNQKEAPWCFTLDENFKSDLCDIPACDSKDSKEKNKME

T2 sequence (Q9Z139 30-937): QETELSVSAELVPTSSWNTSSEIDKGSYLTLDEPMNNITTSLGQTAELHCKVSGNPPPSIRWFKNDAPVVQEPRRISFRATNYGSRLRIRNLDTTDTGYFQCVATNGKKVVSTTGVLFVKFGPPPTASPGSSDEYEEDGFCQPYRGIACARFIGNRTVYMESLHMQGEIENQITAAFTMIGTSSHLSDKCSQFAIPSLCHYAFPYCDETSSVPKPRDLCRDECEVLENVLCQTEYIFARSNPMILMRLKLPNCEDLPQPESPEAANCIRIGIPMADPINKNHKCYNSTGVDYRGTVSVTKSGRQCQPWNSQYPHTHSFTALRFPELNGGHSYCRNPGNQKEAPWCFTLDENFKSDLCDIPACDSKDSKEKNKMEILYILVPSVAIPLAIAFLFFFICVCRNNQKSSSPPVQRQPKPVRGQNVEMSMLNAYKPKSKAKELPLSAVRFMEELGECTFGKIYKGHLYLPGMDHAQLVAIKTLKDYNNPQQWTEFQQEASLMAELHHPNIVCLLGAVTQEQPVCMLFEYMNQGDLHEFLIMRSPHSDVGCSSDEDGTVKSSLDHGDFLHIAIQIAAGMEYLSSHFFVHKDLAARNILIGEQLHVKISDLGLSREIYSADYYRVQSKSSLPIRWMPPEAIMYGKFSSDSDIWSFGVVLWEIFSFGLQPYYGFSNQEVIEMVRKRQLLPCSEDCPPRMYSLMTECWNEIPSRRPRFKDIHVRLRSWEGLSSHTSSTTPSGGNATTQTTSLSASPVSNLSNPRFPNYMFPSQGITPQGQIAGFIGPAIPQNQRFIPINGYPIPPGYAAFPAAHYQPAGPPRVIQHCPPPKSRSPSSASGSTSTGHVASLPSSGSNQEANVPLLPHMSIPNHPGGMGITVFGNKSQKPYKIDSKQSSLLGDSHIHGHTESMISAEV
T1 sequence (Q01974 34-943): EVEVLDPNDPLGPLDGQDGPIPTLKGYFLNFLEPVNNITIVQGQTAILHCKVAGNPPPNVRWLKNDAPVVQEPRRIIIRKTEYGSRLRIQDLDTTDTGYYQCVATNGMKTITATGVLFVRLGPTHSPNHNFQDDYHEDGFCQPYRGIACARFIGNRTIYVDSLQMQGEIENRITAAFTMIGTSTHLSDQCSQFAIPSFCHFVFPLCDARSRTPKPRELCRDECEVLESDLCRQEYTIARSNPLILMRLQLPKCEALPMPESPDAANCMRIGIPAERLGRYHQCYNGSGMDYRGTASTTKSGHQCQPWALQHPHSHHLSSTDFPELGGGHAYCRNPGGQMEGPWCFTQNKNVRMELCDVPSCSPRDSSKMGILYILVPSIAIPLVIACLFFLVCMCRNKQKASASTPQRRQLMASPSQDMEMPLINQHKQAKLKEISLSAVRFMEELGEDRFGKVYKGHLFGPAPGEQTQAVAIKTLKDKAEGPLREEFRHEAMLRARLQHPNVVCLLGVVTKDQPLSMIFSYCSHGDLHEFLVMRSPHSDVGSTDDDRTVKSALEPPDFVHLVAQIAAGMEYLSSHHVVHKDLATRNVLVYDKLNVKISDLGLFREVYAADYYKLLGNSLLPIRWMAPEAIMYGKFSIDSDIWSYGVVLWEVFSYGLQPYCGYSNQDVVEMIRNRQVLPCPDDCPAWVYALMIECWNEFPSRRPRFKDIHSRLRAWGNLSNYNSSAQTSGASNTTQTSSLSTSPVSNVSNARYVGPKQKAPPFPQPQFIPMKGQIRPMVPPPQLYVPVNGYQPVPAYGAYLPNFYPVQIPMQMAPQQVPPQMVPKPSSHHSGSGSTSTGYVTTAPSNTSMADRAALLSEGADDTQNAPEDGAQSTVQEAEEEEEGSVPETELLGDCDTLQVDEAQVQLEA

B1: A2F2 (antibody, human IgG1, lambda, V domains shown)
VH: EVQLLESGGGLVQPGGSLRLSCAASGFTFSDYYMSWVRQAPGKGLEWVSSISPDGSNTYYADSVKGRFTISRDNSKNTLYLQMNSLRAEDTAVYYCAKNLRAFDYWGQGTLVTVSS
VL: QSVLTQPPPASGTPGQRVTISCSGSSSNIGSNTVYWYQQLPGTAPKLLIYANSQRPSGVPDRFSGSKSGTSASLAISGLRSEDEADYYCGSWDYSLSGYVFGGGTKLTVLG
notes: full IgG, human IgG1 heavy and lambda light constant regions; expressed in CHO-S; also called 항-ROR1 IgG 항체 A2F2
[1]
  binding result: no binding
[2]
  binding result: binds
[3]
  binding result: binds
[4]
  binding result: binds
[5]
  binding result: binds
[6]
  binding result: binds

B2: C2E3 (antibody, human IgG1, lambda, V domains shown)
VH: EVQLLESGGGLVQPGGSLRLSCAASGFTFSNYAMSWVRQAPGKGLEWVSSISHNSGSTYYADSVKGRFTISRDNSKNTLYLQMNSLRAEDTAVYYCAKFISARKSLGRSYSNGMDVWGQGTLVTVSS
VL: QSVLTQPPSASGTPGQRVTISCTGSSSNIGSNDVTWYQQLPGTAPKLLIYADSKRPSGVPDRFSGSKSGTSASLAISGLRSEDEADYYCGTWDYSLSGYVFGGGTKLTVLG
notes: full IgG, human IgG1 heavy and lambda light constant regions; expressed in CHO-S; also called 항-ROR1 IgG 항체 C2E3; ROR1 단일클론항체(C2E3)
[1]
  binding result: no binding
[2]
  binding result: binds
[5]
  binding result: binds

B3: D2B12 (antibody, human IgG1, lambda, V domains shown)
VH: EVQLLESGGGLVQPGGSLRLSCAASGFTFSNYDMSWVRQAPGKGLEWVSSISPSSGSSIYYADSVKGRFTISRDNSKNTLYLQMNSLRAEDTAVYYCAKAPGWCQAPSCYYDNAMDVWGQGTLVTVSS
VL: QSVLTQPPSASGTPGQRVTISCSGSSSNIGNNDVSWYQQLPGTAPKLLIYDDSQRPSGVPDRFSGSKSGTSASLAISGLRSEDEADYYCGAWDDSLSGYVFGGGTKLTVLG
notes: full IgG, human IgG1 heavy and lambda light constant regions; expressed in CHO-S; also called 항-ROR1 IgG 항체 D2B12
[1]
  binding result: no binding
[2]
  binding result: binds
[3]
  binding result: binds
[4]
  binding result: binds
[5]
  binding result: binds
[6]
  binding result: binds

B4: DG6 (antibody, human IgG1, lambda, V domains shown)
VH: EVQLLESGGGLVQPGGSLRLSCAASGFTFSDYDMSWVRQAPGKGLEWVSVISPDGGSIYYADSVKGRFTISRDNSKNTLYLQMNSLRAEDTAVYYCARDVVECNMNPCSYDNAMDVWGQGTLVTVSS
VL: QSVLTQPPSASGTPGQRVTISCSGSSSNIGSNYVSWYQQLPGTAPKLLIYDDSHRPSGVPDRFSGSKSGTSASLAISGLRSEDEADYYCGAWDDSLSGYVFGGGTKLTVLG
notes: full IgG, human IgG1 heavy and lambda light constant regions; expressed in CHO-S; also called 항-ROR1 IgG 항체 DG6
[1]
  binding result: no binding
[2]
  binding result: binds
[3]
  binding result: binds
[4]
  binding result: binds
[5]
  binding result: binds
[6]
  binding result: binds

B5: BA6 (antibody, human IgG1, lambda, V domains shown)
VH: EVQLLESGGGLVQPGGSLRLSCAASGFTFSNYDMSWVRQAPGKGLEWVSAIYHSGSSKYYADSVKGRFTISRDNSKNTLYLQMNSLRAEDTAVYYCARGGNGAWDTGFDYWGQGTLVTVSS
VL: QSVLTQPPSASGTPGQRVTISCSGSSSNIGSNDVSWYQQLPGTAPKLLIYYDNNRPSGVPDRFSGSKSGTSASLAISGLRSEDEADYYCGAWDDSLSGYVFGGGTKLTVLG
notes: full IgG, human IgG1 heavy and lambda light constant regions; expressed in CHO-S; also called 항-ROR1 IgG 항체 BA6
[1]
  binding result: no binding
[2]
  binding result: binds
[3]
  binding result: binds
[4]
  binding result: binds
[5]
  binding result: binds
[6]
  binding result: binds

B6: CC9 (antibody, human IgG1, lambda, V domains shown)
VH: EVQLLESGGGLVQPGGSLRLSCAASGFTFSSYDMSWVRQAPGKGLEWVSGISHGSGNKYYADSVKGRFTISRDNSKNTLYLQMNSLRAEDTAVYYCAKRLSLRRRPSYYSDNAMDVWGQGTLVTVSS
VL: QSVLTQPPSASGTPGQRVTISCTGSSSNIGNNAVNWYQQLPGTAPKLLIYYDSNRPSGVPDRFSGSKSGTSASLAISGLRSEDEADYYCGAWDDSLSGYVFGGGTKLTVLG
notes: full IgG, human IgG1 heavy and lambda light constant regions; expressed in CHO-S; also called 항-ROR1 IgG 항체 CC9
[1]
  binding result: no binding
[2]
  binding result: binds
[3]
  binding result: binds
[4]
  binding result: binds
[5]
  binding result: binds
[6]
  binding result: binds

B7: AB4 (antibody, human IgG1, lambda, V domains shown)
VH: EVQLLESGGGLVQPGGSLRLSCAASGFTFSSYDMSWVRQAPGKGLEWVSWISPDSGSIYYADSVKGRFTISRDNSKNTLYLQMNSLRAEDTAVYYCARPTGRFDYWGQGTLVTVSS
VL: QSVLTQPPSASGTPGQRVTISCSGSSSNIGNNNVNWYQQLPGTAPKLLIYYDNKRPSGVPDRFSGSKSGTSASLAISGLRSEDEADYYCGTWDASLSGYVFGGGTKLTVLG
notes: full IgG, human IgG1 heavy and lambda light constant regions; expressed in CHO-S; also called 항-ROR1 IgG 항체 AB4
[1]
  binding result: no binding
[2]
  binding result: binds
[5]
  binding result: binds

B8: A2F3 (antibody, human IgG1, lambda, V domains shown)
VH: EVQLLESGGGLVQPGGSLRLSCAASGFTFSSYDMSWVRQAPGKGLEWVSWISPGGGSKYYADSVKGRFTISRDNSKNTLYLQMNSLRAEDTAVYYCARVNGRFDYWGQGTLVTVSS
VL: QSVLTQPPSASGTPGQRVTISCSGSSSNIGNNNVSWYQQLPGTAPKLLIYADSHRPSGVPDRFSGSKSGTSASLAISGLRSEDEADYYCATWDYSLSGYVFGGGTKLTVLG
notes: full IgG, human IgG1 heavy and lambda light constant regions; expressed in CHO-S; also called 항-ROR1 IgG 항체 A2F3
[1]
  binding result: no binding
[2]
  binding result: binds
[3]
  binding result: binds
[4]
  binding result: binds
[5]
  binding result: binds
[6]
  binding result: binds

B9: A2F2 M1 (antibody, human IgG1, lambda, V domains shown)
VH: EVQLLESGGGLVQPGGSLRLSCAASGFTFSDYYMSWVRQAPGKGLEWVSSISPDASNTYYADSVKGRFTISRDNSKNTLYLQMNSLRAEDTAVYYCAKNLRAFDYWGQGTLVTVSS
VL: QSVLTQPPPASGTPGQRVTISCSGSSSNIGSNTVYWYQQLPGTAPKLLIYANSQRPSGVPDRFSGSKSGTSASLAISGLRSEDEADYYCGSWDYSLSGYVFGGGTKLTVLG
notes: full IgG, human IgG1 heavy and lambda light constant regions; expressed in CHO-S; also called 항-ROR1 IgG 항체 A2F2 M1
[1]
  binding result: no binding
[2]
  binding result: binds
[3]
  binding result: binds
[4]
  binding result: binds
[5]
  binding result: binds
[6]
  binding result: binds

B10: BA6 M1 (antibody, human IgG1, lambda, V domains shown)
VH: EVQLLESGGGLVQPGGSLRLSCAASGFTFSNYDMSWVRQAPGKGLEWVSAIYHSGSSKYYADSVKGRFTISRDNSKNTLYLQMNSLRAEDTAVYYCARGGNAAWDTGFDYWGQGTLVTVSS
VL: QSVLTQPPSASGTPGQRVTISCSGSSSNIGSNDVSWYQQLPGTAPKLLIYYDNNRPSGVPDRFSGSKSGTSASLAISGLRSEDEADYYCGAWDDSLSGYVFGGGTKLTVLG
notes: full IgG, human IgG1 heavy and lambda light constant regions; expressed in CHO-S; also called 항-ROR1 IgG 항체 BA6 M1
[1]
  binding result: no binding
[2]
  binding result: binds
[3]
  binding result: binds
[4]
  binding result: binds
[5]
  binding result: binds
[6]
  binding result: binds
